Reference: patent publication US20150252107A1, “APLNR Modulators and Uses Thereof” (Regeneron Pharmaceuticals, Inc., priority 2013, published 2015)
Numbering of substitutions follows the chain as printed. No end group written: not given here.

T1: hAPLNR (Homo sapiens, UniProt P35414)
T1 construct: expressed in transfected cells
T1 sequence (P35414 1-380): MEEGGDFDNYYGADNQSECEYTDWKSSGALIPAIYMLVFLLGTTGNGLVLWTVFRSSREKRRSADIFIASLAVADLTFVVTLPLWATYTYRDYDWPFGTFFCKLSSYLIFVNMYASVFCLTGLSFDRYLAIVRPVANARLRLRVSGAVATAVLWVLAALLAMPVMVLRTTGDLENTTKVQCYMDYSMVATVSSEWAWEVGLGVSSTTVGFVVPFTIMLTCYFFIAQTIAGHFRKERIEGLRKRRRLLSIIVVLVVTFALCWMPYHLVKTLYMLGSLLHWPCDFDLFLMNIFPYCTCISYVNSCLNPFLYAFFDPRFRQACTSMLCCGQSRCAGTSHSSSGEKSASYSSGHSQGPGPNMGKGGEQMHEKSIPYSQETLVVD

B1: H4H9103P: anti-APLNR antibody, HCVR/LCVR SEQ ID NOs 162/170, human IgG4 Fc (antibody, V domains shown)
VH: EVQLVESGGGLVQPGRSLRLSCAASGFTFDDYAMHWVRQVPGKGLEWVSGITWNSGDIGYADSVKGRFTISRDNAKNSLYLQMNSLRAEDTALYYCTKDKDSSGYYGIDVWGQGTTVTVSS
VL: DIQMTQSPSSVSASVGDRVTITCRASQGIRTWLAWYQQKPGKAPKLLIYAASSLQSGVPSRFSGSESGTDFTLTISSLQPEDFATYYCQQANSFPFTFGPGTKVDIK
modifications: human IgG4 Fc
B2: H2aM9227N: anti-APLNR antibody, HCVR/LCVR SEQ ID NOs 50/58, mouse IgG2a Fc (antibody, V domains shown)
VH: EVQLVESGGGLVQPGGSLRLSCAASGFTFSSFWMSWVRQVPGKGLEWVANIKQDGSEKYYVDSVKGRFTISRDNAKNSLYLQMNSLRAEDTAVYYCARDRFGYSFYDKGVRYYYGMDVWGQGTTVTVSS
VL: DIQMTQSPSSLSVSVGDRVTITCRASQGIRNDLGWYQQKPGKAPKRLIYATSSLQSGVPSRFSGSGSGTEFTLTISGLQPEDFATYYCLQHNSYPRTFGQGTKVEIK
modifications: mouse IgG2a Fc
B3: H2aM9222N: anti-APLNR antibody, HCVR/LCVR SEQ ID NOs 34/42, mouse IgG2a Fc (antibody, V domains shown)
VH: B2 VH with S31N, F32Y, V40A, K58R, D62G, D73G, N74D, K76E, F105A
VL: B2 VL with V13A, T51A, G77S
modifications: mouse IgG2a Fc
B4: H4H9113P: anti-APLNR antibody, HCVR/LCVR SEQ ID NOs 210/218, human IgG4 Fc (antibody, V domains shown)
VH: QVQLVQSGAEVKKPGASVEVSCKASGYTFTDYYIHWIRQAPGQGLEWMGWINPDSGRTNYAQKFQVRVTMTRDTSITTAYMELNRLKSDDTAVYYCARGPLRGYSGYDFFDYWGQGTLVTVSS
VL: B2 VL with V13A, K45N, T51A, G77S, Q79H, Y87S, Y94F, R96L, Q100G
modifications: human IgG4 Fc
B5: H2aM9230N: anti-APLNR antibody, HCVR/LCVR SEQ ID NOs 82/90, mouse IgG2a Fc (antibody, V domains shown)
VH: B2 VH with E46Q, F105V
VL: B2 VL with T51A, P80S, N92K
modifications: mouse IgG2a Fc
B6: H2aM9228N: anti-APLNR antibody, HCVR/LCVR SEQ ID NOs 66/74, mouse IgG2a Fc (antibody, V domains shown)
VH: B2 VH with S31N, F32Y, Q39L, V40A, K58R, D62G, D73G, N74D, F105A, Y106F
VL: B2 VL with V13A, T51A, G77S
modifications: mouse IgG2a Fc
B7: H4H9104P: anti-APLNR antibody, HCVR/LCVR SEQ ID NOs 178/186, human IgG4 Fc (antibody, V domains shown)
VH: QVQLVESGGDLVKPGGSLRLSCAASGFTFSDYYMNWIRQAPGKGLEWVSYISSSGSTIHYADSVKGRFTISRDNAKNLVYLRMNSLRAEDTAVYFCAREREVHDYSDPYFFFYGMDVWGQGTTVTVSS
VL: DIQMTQSPSSVSASVGDRVTITCRASQDVSSWLAWYQHKPGKAPKLLIFAASSLQSGVPSRFSGSGSGTDFTLTISSLQSEDFATYYCQQANSFPLTFGGGTKVEIK
modifications: human IgG4 Fc
B8: H4H9101P: anti-APLNR antibody, HCVR/LCVR SEQ ID NOs 146/154, human IgG4 Fc (antibody, V domains shown)
VH: B4 VH
VL: DIQLTQSPSFLSASVGDRVTITCWASQGISSYLAWYQQKPGKAPKLLIYAASTLQSGVPSRFSGSGSGTEFTLTISSLQPEDFASYFCQQLNSNPRTFGQGTKVEIK
modifications: human IgG4 Fc
B9: H4H9112P: anti-APLNR antibody, HCVR/LCVR SEQ ID NOs 194/202, human IgG4 Fc (antibody, V domains shown)
VH: B4 VH
VL: DIQMTQSPSSLSAFVGDRVTITCRASQSISSYLNWYQQKPGKAPKLLIYTASTLQRGVPSRFRGSGSGTDFTLTISSLQPEDFATYYCHQTYSIPITFGQGTRLEIK
modifications: human IgG4 Fc
B10: H1M9207N: anti-APLNR antibody, HCVR/LCVR SEQ ID NOs 2/10, mouse IgG1 Fc (antibody, V domains shown)
VH: EVQLVESGGGLAQPGGSLRLSCAASGFTFSNYWMSWVRQAPGKGLEWVANIKQDGSEKYYLESVKGRFTISRDNAKNLLYLQMNSLRAEDTAVFYCARPGLLRFLEPGRRYYSGMNVWGQGTTVTVSS
VL: B8 VL with S30R, S85T, F87Y, L91F, N94Y, R96W
modifications: mouse IgG1 Fc

Biological target: T1, hAPLNR
Assay: CRE assay of modified apelin peptides in HEK293/CRE-luc/hAPLNR cells
Format: cell-based
Details: Table 9; 5 μM forskolin
Experimental: After 5 hours of incubation at 37° C. in 5% CO2, luminescence was measured following the addition of One Glo reagent (Promega, #E6051) using a Victor X instrument (Perkin Elmer). The data were fit by nonlinear regression to a 4-parameter logistic equation with Prism 5 software (GraphPad).

Row | EC50 [nM] | Molecule
1 | 0.147 | CSCC[C@H](NC(=O)[C@@H]1CCCN1C(=O)CNC(=O)[C@H](CCCCN)NC(=O)[C@H](Cc1c[nH]cn1)NC(=O)[C@H](CO)NC(=O)[C@H](CC(C)C)NC(=O)[C@H](CCCNC(=N)N)NC(=O)[C@@H]1CCCN1C(=O)[C@H](CCCNC(=N)N)NC(=O)[C@@H](N)CCC(N)=O)C(=O)N1CCC[C@H]1C(=O)N[C@@H](Cc1ccccc1)C(=O)NCC(=O)NCC(=O)NCC(=O)NCC(=O)NCC(=O)O [Apelin-13 + 5G]
2 | 0.438 | CSCC[C@H](NC(=O)[C@@H]1CCCN1C(=O)CNC(=O)[C@H](CCCCN)NC(=O)[C@H](Cc1c[nH]cn1)NC(=O)[C@H](CO)NC(=O)[C@H](CC(C)C)NC(=O)[C@H](CCCNC(=N)N)NC(=O)[C@@H]1CCCN1)C(=O)N1CCC[C@H]1C(=O)N[C@@H](Cc1ccccc1)C(=O)O [Apelin-11, reference compound]
3 | 0.00519 | CSCC[C@H](NC(=O)[C@@H]1CCCN1C(=O)CNC(=O)[C@H](CCCCN)NC(=O)[C@H](Cc1c[nH]cn1)NC(=O)[C@H](CO)NC(=O)[C@H](CC(C)C)NC(=O)[C@H](CCCNC(=N)N)NC(=O)[C@@H]1CCCN1C(=O)[C@@H](N)CCCNC(=N)N)C(=O)N1CCC[C@H]1C(=O)O [Apelin66-76]
4 | 0.00217 | RPRLSHKGPM [Apelin66-75]
5 | 374 | PRLSHKGPM [Apelin67-75]

Biological target: T1, hAPLNR
Assay: cyclic AMP (CRE-luciferase) assay, activation of hAPLNR in HEK293/CRE-luc/hAPLNR cells
Format: cell-based
Details: Table 6A; % of maximum Apelin activation, without Apelin
Experimental: The ability of anti-APLNR antibodies to activate hAPLNR-mediated cell signaling was measured using a cyclic AMP assay. The hAPLNR is a 7-transmembrane G-protein coupled receptor (GPCR).
(§1) The resulting cell line, HEK293/CRE-luc/hAPLNR, was maintained in DMEM containing 10% FBS, NEAA, penicillin/streptomycin, and 100 μg/mL Hygromycin B.
(§2) Testing of antibodies included a no antibody control.
(§3) The results of all assays were analyzed using nonlinear regression (4-parameter logistics) within Prism 5 software (GraphPad).

Row | % Activation at 100 nM mAb (at 5 uM Forskolin) | % Activation at 100 nM mAb (at 10 uM Forskolin) | Molecule
6 | No Activation |  | B1
7 |  | 12% | B2
8 |  | No Activation | B3
9 | No Activation |  | B4
10 |  | No Activation | B5
11 |  | No Activation | B6
12 | No Activation |  | B7
13 | No Activation |  | B8
14 | No Activation |  | B9
15 |  | No Activation | B10

Same assay, conditions: text on Table 6A, without Apelin

Row | activation of hAPLNR, % of maximum Apelin activation at 100 nM, the highest antibody dose tested [%] | Molecule
16 | 12 | B2

Biological target: T1, hAPLNR
Assay: cyclic AMP (CRE-luciferase) assay, inhibition of hAPLNR in the presence of 100 pM Apelin
Format: cell-based
Details: Tables 6C and 6D
Experimental: as §1, §2, §3

Row | Molecule | inhibition (maximum blockade) of 100ρM Apelin activation
17 | B1 | did not demonstrate any measurable blockade
18 | B4 | did not demonstrate any measurable blockade
19 | B7 | did not demonstrate any measurable blockade
20 | B8 | did not demonstrate any measurable blockade
21 | B9 | did not demonstrate any measurable blockade

System: HEK293 parental cells
Assay: FACS binding to HEK293 parental cells
Details: 10 μg/mL antibody
Experimental: Binding ratios for human APLNR binding to purified anti-APLNR monoclonal antibodies were determined by a fluorescence-activated cell sorting (FACS) binding assay. […] The resulting stable cell lines, HEK293/CRE-luc/hAPLNR and HEK293/CRE-luc/MfAPLNR, were maintained in DMEM containing 10% FBS, NEAA, and penicillin/streptomycin with either 100 μg/mL Hygromycin B for hAPLNR cells or 500 μg/mL G418 for MfAPLNR cells.
For the FACS analysis, HEK293 parental, HEK293/CRE-luc/hAPLNR, and, HEK293/CRE-luc/mfAPLNR cells were dissociated using Enzyme Free Dissociation reagent (#S-004, Millipore, Billerica, Mass., USA) and 10^6 cells/well were plated onto 96-well v-bottom plates in PBS containing 1% FBS. […] Cells were then filtered and analyzed on Accuri Flow Cytometer (BD Biosciences, San Jose, Calif., USA). Unstained and secondary antibody alone controls were also tested for binding to all cell lines. […] Geometric mean (Geom. mean) of fluorescence for each antibody was then normalized to geometric mean of unstained cells to obtain relative binding of antibody (binding ratios) per each cell type: HEK293 (parental), HEK293/CRE-luc/hAPLNR and HEK293/CRE-luc/MfAPLNR.

Row | Molecule | Binding Ratio of Geom. Mean to Unstained Cells, HEK293 Parental
22 | B2 | 4
23 | B3 | 2
24 | B5 | 3
25 | B6 | 3
26 | B10 | 4
